{"source": "patent US11833164B2", "about": "“Methods of treating Fabry disease in patients having a mutation in the GLA gene” (Amicus Therapeutics, Inc., priority 2019, dated 2023)", "molecules": {"B1": {"name": "G144S (protein)", "chain": "MQLRNPELHLGCALALRFLALVSWDIPGARALDNGLARTPTMGWLHWERFMCNLDCQEEPDSCISEKLFMEMAELMVSEGWKDAGYEYLCIDDCWMAPQRDSEGRLQADPQRFPHGIRQLANYVHSKGLKLGIYADVGNKTCASFPGSFGYYDIDAQTFADWGVDLLKFDGCYCDSLENLADGYKHMSLALNRTGRSIVYSCEWPLYMWPFQKPNYTEIRQYCNHWRNFADIDDSWKSIKSILDWTSFNQERIVDVAGPGGWNDPDMLVIGNFGLSWNQQVTQMALWAIMAAPLFMSNDLRHISPQAKALLQDKDVIAINQDPLGKQGYQLRQGDNFEVWERPLSGLAWAVAMINRQEIGGPRSYTIAVASLGKGVACNPACFITQLLPVKRKLGFYEWTSRLRSHINPTGTVLLQLENTMQMSLKDLL"}, "B2": {"name": "F145C (protein)", "chain": "B1 chain with S144G, F145C"}, "B3": {"name": "P146A (protein)", "chain": "B1 chain with S144G, P146A"}, "B4": {"name": "S148T (protein)", "chain": "B1 chain with S144G, S148T"}, "B5": {"name": "S148G (protein)", "chain": "B1 chain with S144G, S148G"}, "B6": {"name": "P146T (protein)", "chain": "B1 chain with S144G, P146T"}, "B7": {"name": "F145Y (protein)", "chain": "B1 chain with S144G, F145Y"}, "B8": {"name": "P146H (protein)", "chain": "B1 chain with S144G, P146H"}, "B9": {"name": "F145V (protein)", "chain": "B1 chain with S144G, F145V"}, "B10": {"name": "P146L (protein)", "chain": "B1 chain with S144G, P146L"}, "B11": {"name": "F145L (protein)", "chain": "B1 chain with S144G, F145L"}, "B12": {"name": "S148C (protein)", "chain": "B1 chain with S144G, S148C"}, "B13": {"name": "G147A (protein)", "chain": "B1 chain with S144G, G147A"}}, "tested_on": "mutant form of α-Gal A expressed in HEK-293 cells", "assay": "HEK assay (GLP HEK / Migalastat Amenability Assay): α-Gal A activity in lysates of transiently transfected HEK-293 cells incubated with or without 10 μM migalastat", "format": "cell-based, human", "conditions": "for Absolute increase (% WT): 10 μM migalastat versus baseline; for Relative increase: 10 μM migalastat α-Gal A activity relative to baseline; for 10 μM migalastat α-Gal A activity (% WT): 5 days; for 10 μM migalastat α-Gal A activity (% WT) / Baseline α-Gal A activity (% WT): percentage of baseline wild-type α-Gal A activity; for 10 μM migalastat α-Gal A activity (% WT) / Baseline α-Gal A activity (% WT) / Baseline α-Gal A activity / 10 μM migalastat α-Gal A activity: mean ± SEM; for Baseline α-Gal A activity (% WT) / Baseline α-Gal A activity (nmol/mg/hr): absence of migalastat; for Baseline α-Gal A activity / 10 μM migalastat α-Gal A activity: lysates of HEK-293 cells transfected with the mutant form; for Baseline α-Gal A activity: incubated 5 days in the absence of migalastat; for 10 μM migalastat α-Gal A activity: incubated 5 days with 10 μM migalastat; for Baseline α-Gal A activity (nmol/mg/hr): mean activity below the limit of detection (<142 nmol/mg/hr)", "how_it_was_run": "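Activity reported as 4-MU released (nmol/mg/hr), mean±SEM, from lysates of transiently transfected HEK-293 cells expressing mutant α-Gal A, cultured with or without 10 μM migalastat.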", "note": "Substitutions are numbered along the chain they refer to. Numbers in names are those of the source.", "data": [{"molecule": "B1", "values": [{"measurement": "Absolute increase (% WT)", "result": 30.4, "unit": "% WT"}, {"measurement": "Relative increase", "result": 1.6}, {"measurement": "10 μM migalastat α-Gal A activity (% WT)", "result": "78 ± 5.6", "unit": "% WT"}, {"measurement": "Baseline α-Gal A activity (% WT)", "result": "47.6 ± 2.4", "unit": "% WT"}, {"measurement": "Baseline α-Gal A activity", "result": "14190 ± 967", "unit": "nmol/mg/h"}, {"measurement": "10 μM migalastat α-Gal A activity", "result": "23153 ± 1847", "unit": "nmol/mg/h"}]}, {"molecule": "B2", "values": [{"measurement": "Absolute increase (% WT)", "result": 25.7, "unit": "% WT"}, {"measurement": "Relative increase", "result": 14.4}, {"measurement": "10 μM migalastat α-Gal A activity (% WT)", "result": "27.8 ± 0.8", "unit": "% WT"}, {"measurement": "Baseline α-Gal A activity (% WT)", "result": "2.1 ± 0.2", "unit": "% WT"}, {"measurement": "Baseline α-Gal A activity", "result": "768 ± 54", "unit": "nmol/mg/h"}, {"measurement": "10 μM migalastat α-Gal A activity", "result": "11083 ± 678", "unit": "nmol/mg/h"}]}, {"molecule": "B3", "values": [{"measurement": "Absolute increase (% WT)", "result": 25.4, "unit": "% WT"}, {"measurement": "Relative increase", "result": 1.6}, {"measurement": "10 μM migalastat α-Gal A activity (% WT)", "result": "64.1 ± 4.4", "unit": "% WT"}, {"measurement": "Baseline α-Gal A activity (% WT)", "result": "38.7 ± 2.5", "unit": "% WT"}, {"measurement": "Baseline α-Gal A activity", "result": "15393 ± 1271", "unit": "nmol/mg/h"}, {"measurement": "10 μM migalastat α-Gal A activity", "result": "25029 ± 1628", "unit": "nmol/mg/h"}]}, {"molecule": "B4", "values": [{"measurement": "Absolute increase (% WT)", "result": 15.9, "unit": "% WT"}, {"measurement": "Relative increase", "result": 1.2}, {"measurement": "10 μM migalastat α-Gal A activity (% WT)", "result": "82.4 ± 3.7", "unit": "% WT"}, {"measurement": "Baseline α-Gal A activity (% WT)", "result": "66.5 ± 3.8", "unit": "% WT"}, {"measurement": "Baseline α-Gal A activity", "result": "24827 ± 1221", "unit": "nmol/mg/h"}, {"measurement": "10 μM migalastat α-Gal A activity", "result": "30620 ± 813", "unit": "nmol/mg/h"}]}, {"molecule": "B5", "values": [{"measurement": "Absolute increase (% WT)", "result": 11.8, "unit": "% WT"}, {"measurement": "Relative increase", "result": 11.2}, {"measurement": "10 μM migalastat α-Gal A activity (% WT)", "result": "12.9 ± 1", "unit": "% WT"}, {"measurement": "Baseline α-Gal A activity (% WT)", "result": "1.1 ± 0.1", "unit": "% WT"}, {"measurement": "Baseline α-Gal A activity", "result": "435 ± 55", "unit": "nmol/mg/h"}, {"measurement": "10 μM migalastat α-Gal A activity", "result": "4879 ± 263", "unit": "nmol/mg/h"}]}, {"molecule": "B6", "values": [{"measurement": "Absolute increase (% WT)", "result": 25.0, "unit": "% WT"}, {"measurement": "Relative increase", "result": 1.8}, {"measurement": "10 μM migalastat α-Gal A activity (% WT)", "result": "58.6 ± 2.4", "unit": "% WT"}, {"measurement": "Baseline α-Gal A activity (% WT)", "result": "33.6 ± 1.5", "unit": "% WT"}, {"measurement": "Baseline α-Gal A activity", "result": "13711 ± 1154", "unit": "nmol/mg/h"}, {"measurement": "10 μM migalastat α-Gal A activity", "result": "24123 ± 2081", "unit": "nmol/mg/h"}]}, {"molecule": "B7", "values": [{"measurement": "Absolute increase (% WT)", "result": 23.5, "unit": "% WT"}, {"measurement": "Relative increase", "result": 1.2}, {"measurement": "10 μM migalastat α-Gal A activity (% WT)", "result": "131.7 ± 5.1", "unit": "% WT"}, {"measurement": "Baseline α-Gal A activity (% WT)", "result": "108.1 ± 6.2", "unit": "% WT"}, {"measurement": "Baseline α-Gal A activity", "result": "41985 ± 2942", "unit": "nmol/mg/h"}, {"measurement": "10 μM migalastat α-Gal A activity", "result": "51524 ± 2970", "unit": "nmol/mg/h"}]}, {"molecule": "B8", "values": [{"measurement": "Absolute increase (% WT)", "result": 21.8, "unit": "% WT"}, {"measurement": "Relative increase", "result": 3.7}, {"measurement": "10 μM migalastat α-Gal A activity (% WT)", "result": "30.2 ± 2.1", "unit": "% WT"}, {"measurement": "Baseline α-Gal A activity (% WT)", "result": "8.5 ± 0.7", "unit": "% WT"}, {"measurement": "Baseline α-Gal A activity", "result": "3220 ± 211", "unit": "nmol/mg/h"}, {"measurement": "10 μM migalastat α-Gal A activity", "result": "11903 ± 844", "unit": "nmol/mg/h"}]}, {"molecule": "B9", "values": [{"measurement": "Absolute increase (% WT)", "result": 5.7, "unit": "% WT"}, {"measurement": "10 μM migalastat α-Gal A activity (% WT)", "result": "5.7 ± 0.6", "unit": "% WT"}, {"measurement": "Baseline α-Gal A activity (nmol/mg/hr)", "result": "BLD (“BLD” indicates that the mean α-Gal A activity was below the limit of detection (<142 nmol/mg/hr))"}, {"measurement": "10 μM migalastat α-Gal A activity", "result": "2359 ± 333", "unit": "nmol/mg/h"}]}, {"molecule": "B10", "values": [{"measurement": "Absolute increase (% WT)", "result": 12.4, "unit": "% WT"}, {"measurement": "Relative increase", "result": 1.5}, {"measurement": "10 μM migalastat α-Gal A activity (% WT)", "result": "37.1 ± 2.2", "unit": "% WT"}, {"measurement": "Baseline α-Gal A activity (% WT)", "result": "24.7 ± 1.8", "unit": "% WT"}, {"measurement": "Baseline α-Gal A activity", "result": "9940 ± 899", "unit": "nmol/mg/h"}, {"measurement": "10 μM migalastat α-Gal A activity", "result": "14540 ± 903", "unit": "nmol/mg/h"}]}, {"molecule": "B11", "values": [{"measurement": "Absolute increase (% WT)", "result": 61.8, "unit": "% WT"}, {"measurement": "Relative increase", "result": 5.5}, {"measurement": "10 μM migalastat α-Gal A activity (% WT)", "result": "75.7 ± 2.9", "unit": "% WT"}, {"measurement": "Baseline α-Gal A activity (% WT)", "result": "13.9 ± 0.8", "unit": "% WT"}, {"measurement": "Baseline α-Gal A activity", "result": "5455 ± 412", "unit": "nmol/mg/h"}, {"measurement": "10 μM migalastat α-Gal A activity", "result": "29794 ± 1799", "unit": "nmol/mg/h"}]}, {"molecule": "B12", "values": [{"measurement": "Absolute increase (% WT)", "result": 19.3, "unit": "% WT"}, {"measurement": "Relative increase", "result": 1.6}, {"measurement": "10 μM migalastat α-Gal A activity (% WT)", "result": "49.5 ± 2", "unit": "% WT"}, {"measurement": "Baseline α-Gal A activity (% WT)", "result": "30.2 ± 2.2", "unit": "% WT"}, {"measurement": "Baseline α-Gal A activity", "result": "11927 ± 1020", "unit": "nmol/mg/h"}, {"measurement": "10 μM migalastat α-Gal A activity", "result": "19343 ± 919", "unit": "nmol/mg/h"}]}, {"molecule": "B13", "values": [{"measurement": "Absolute increase (% WT)", "result": 3.0, "unit": "% WT"}, {"measurement": "10 μM migalastat α-Gal A activity (% WT)", "result": "3 ± 0.2", "unit": "% WT"}, {"measurement": "Baseline α-Gal A activity (nmol/mg/hr)", "result": "BLD (“BLD” indicates that the mean α-Gal A activity was below the limit of detection (<142 nmol/mg/hr))"}, {"measurement": "10 μM migalastat α-Gal A activity", "result": "1159 ± 74", "unit": "nmol/mg/h"}]}]}
